Molecular target: MSBI1.176 Rep WH1 domain (residues 1-135) (MSBI1.176 (bovine meat and milk factor DNA isolated from a brain sample of a human patient with multiple sclerosis))
Assay: crystal structure; hanging-drop vapor diffusion at 18°C, 1:1 protein (5 mg/ml in 25 mM Tris-HCl pH 7.6, 300 mM NaCl) and 0.2 M magnesium acetate, 20% PEG 3350; S-SAD phasing; 1.53 Å; one dimer in the asymmetric unit

With “MSBI1.176 Rep WH1 domain (residues 1-135) (domain or fragment)” the stoichiometry N was 2.

— PMC6503762
